These results are taken from paper PMC4189953.

The target in assay [1] is CFP-tagged ICln (C-ICln) (human) (UniProt P54105). In words: FRET or BRET; acceptor photobleaching FRET (FRETeff), living HEK cells, 37°C, after 10 min exposure to the hypotonic extracellular solution; CFP donor, YFP acceptor.
The target is the same in assay [2]. In words: FRET or BRET; acceptor photobleaching FRET (FRETeff), living HEK cells 24 h after transfection, 37°C, slightly hypertonic extracellular solution (317 mOsm, pH 7.4); CFP donor, YFP acceptor; whole cell bleached.

UniProt P54105, sequence (P54105 whole entry): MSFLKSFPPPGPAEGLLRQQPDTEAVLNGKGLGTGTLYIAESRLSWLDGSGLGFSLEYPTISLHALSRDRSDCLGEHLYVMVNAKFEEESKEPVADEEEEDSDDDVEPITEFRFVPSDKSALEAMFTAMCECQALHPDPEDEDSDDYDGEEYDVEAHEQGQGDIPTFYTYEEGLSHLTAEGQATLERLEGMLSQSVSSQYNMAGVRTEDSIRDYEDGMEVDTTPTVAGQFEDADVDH

“YFP-tagged 4.1R^80 (Y-4.1R^80) (natural protein)”: the values for the FRETeff in assay [1] and in assay [2] were 15.1 and 11.6, respectively.
